Data as given in patent US20150210998.

Assays:
[1] = molecular target: UbcH7˜125I-ubiquitin thioester (UniProt P68036)
[2] = molecular target: HPV16 E6 protein (recombinant, full-length) (UniProt P03126)
Sequence of HPV16 E6 protein (recombinant, full-length) (P03126 whole entry): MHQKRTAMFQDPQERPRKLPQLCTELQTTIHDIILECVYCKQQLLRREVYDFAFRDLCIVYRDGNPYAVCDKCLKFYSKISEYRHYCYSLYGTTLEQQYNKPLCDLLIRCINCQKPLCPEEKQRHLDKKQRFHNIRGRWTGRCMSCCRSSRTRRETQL

Sequence of UbcH7˜125I-ubiquitin thioester (P68036 whole entry, looked up): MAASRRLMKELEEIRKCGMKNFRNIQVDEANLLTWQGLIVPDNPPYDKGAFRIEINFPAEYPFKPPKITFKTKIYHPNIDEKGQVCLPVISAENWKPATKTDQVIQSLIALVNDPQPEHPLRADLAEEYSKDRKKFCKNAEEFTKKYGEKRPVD

Row | Substance | Km- [1] | kcat of 125I-polyubiquitin chain formation in the presence of E6 [2]
1 | GST-E6AP ligase (wild-type, bacterially expressed fusion protein) | 0.058 µM | –
2 | His6-E6AP ligase (full-length, baculovirus-expressed) | 0.046 µM | 0.81±0.045 s^-1 in its presence
